This data set is described as follows: yeast display, Sf9 membrane polyspecificity reagent, FACS + sequencing; frameworks hold sequencing errors. Summed up: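 Using colony PCR, genes from sorted yeast display clones were amplified, then sequenced on MiSeq at 2 × 250 and filtered by CDR length. The clones had been stained with 10% biotinylated, detergent-solubilized Sf9 membrane reagent for 1 hour at 4 °C and sorted by FACS into low and high (top ~1%) gates on anti-HA and streptavidin fluorescence. Polyreactivity labels come from the gate of origin.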
Consider “QVQLVESGGGLVQAGGSLRLSCAASGSIFEPYVMGWYRQAPGKERELVAAIRQTGGSTYYADSVKGRFTISRDNAKNTVFLQMNSLKPEDTAVYYCNAKWYGWQRGTVKYDYWGQGTQVTVSS”, for which the “polyreactivity (PSR sort gate)” value is on record as “low polyreactivity”.

“QVQLVESGGGLVQAGGSLRLSCAASGSIFEPYVMGWYRQAPGKERELVAVITSGSGRTYYADSVKGRFTISRDNAKNTVYLQMNSLKPEDTAVYYCNKAYLGYRYDLYDYWGQGTQVTVSS”: the “polyreactivity (PSR sort gate)” value was “low polyreactivity”. To “QVQLVESGGGLVQAGGSLRLSCAASGSIFERNAMGWYRQAPGKERELVAAISWSSARTYYADSVKGRFTISRDNAKNTVYLQMNSLKPEDTAVYYCAARVWNEGVRYDYWGQGTQVTVSS” belongs “high polyreactivity”. In the case of “QVQLVESGGGLVQAGGSLRLSCAASGSIFESYAMGLYRQAPGKERELVAALTSSGDSTYYADSVKGRFTISRDNAKNTVYLQMYSLNPEDTAVDYCAKRVPTYISTADWVSRYDYWGQGTQVTVSS”, the “polyreactivity (PSR sort gate)” value is given as “low polyreactivity”. “QVQLVESGGGLVQAGGSLRLSCAASGSIFEVNAMGWYRQAPGKERELVAGISNADSTNYADSVKGRFTISRDNAKNTVYLQMNSLKPEDTAVYYCATDLYRDHPKDLLGPEYDYWGQGTQVTVSS”: the “polyreactivity (PSR sort gate)” value is on record as “low polyreactivity”. For “QVQLVESGGGLVQAGGSLRLSCAASGSIFEVYAMGWYRQAPGKERELVAAINYTGGSTYYADSVKGRFTISRDNAKNTVYLQMNSLKPEDTAVYYCAVPRGVASLQKVEFGYWGQGTQVTVSS”, the “polyreactivity (PSR sort gate)” value is reported as “low polyreactivity”.

Turning to “QVQLVESGGGLVQAGGSLRLSCAASGSIFEYNAMGWYRQAPGKERELVAAISGNGGRTYYADSVKGRFTISRDNAKNTVYLQMNSLKPEDTAVYYCNAQTYYSTYKSTFYYWGQGTQVTVSS”, the “polyreactivity (PSR sort gate)” value is “high polyreactivity”. On to “QVQLVESGGGLVQAGGSLRLSCAASGSIFEYNAMGWYRQAPGKERELVAAISWSSGTTYYADSVKGRFTISRDNAKNTVYLQMNSLKPEDTAVYYCAAVRWYVPGDVGYWGQGTQVTVSS”, for which the “polyreactivity (PSR sort gate)” value is given as “low polyreactivity”. On to “QVQLVESGGGLVQAGGSLRLSCAASGSIFEYNVMGWYRQAPGKERELVAAINSGGSTYYADSVKGRFTISRDNAKNTVYLQMNSLKPEDTAVYYCAARQRPNRYGYYYWGQGTQVTVSS”, for which the “polyreactivity (PSR sort gate)” value is “high polyreactivity”.

For the sequence “QVQLVESGGGLVQAGGSLRLSCAASGSIFEYYTMGWYIQAPGKERELVAGISWSGGSSYYADSVKGRFTISRDNAKNTVYLQMNSLKPEDTAVYYCAAGRTGWYWDSGSTYRYGYGYWGQGTQVTVSS”, the “polyreactivity (PSR sort gate)” value was “high polyreactivity”.

With “QVQLVESGGGLVQAGGSLRLSCAASGSIFFANAMGWYRQAPGKERELVAAITGSGDITYYADSVKGRFTISRDNAKNTVYLQMNSLKPEDTAVYYCAKRYIYVTHLRHPRYYYWGQGTQVTVSS”, the “polyreactivity (PSR sort gate)” value is listed as “low polyreactivity”. Turning to “QVQLVESGGGLVQAGGSLRLSCAASGSIFFDYAMGWYRQAPGKERELVAAINSGGTTNYADSVKGRFTISRDNAKNTVYLQMIQPETGRYRGLLLQRLPGYLRWYRWYDYWGQGTQVSVSS”, the “polyreactivity (PSR sort gate)” value was “low polyreactivity”.

As for “QVQLVESGGGLVQAGGSLRLSCAASGSIFFDYAMGWYRQAPGKETELVAAMSSTGGSTYYADSVKGRFTISRDNSKNTVYLQMNSLIPEDTAVYYCNARYYSYSSPYDYWGEGTQVTVSS”, the “polyreactivity (PSR sort gate)” value is “high polyreactivity”. To “QVQLVESGGGLVQAGGSLRLSCAASGSIFFFNAMGWYRQAPGKEREFVAAITSSSGRTYYADSVKGRFTISRDNAKNTVYLQMNSLKPEDTAVYYCAAEGLDEGDYWGQGTQVTVSS” belongs “low polyreactivity”.

Regarding “QVQLVESGGGLVQAGGSLRLSCAASGSIFFKNVMGWYRQAPGKERELVAAITWSGGSTYYADSVKGRFTISRDNAKNTVYLQMNSLKPEDTAVYYCNARRSKGMYYWGQGTQVTVSS”, the “polyreactivity (PSR sort gate)” value is recorded as “high polyreactivity”. The same measure for “QVQLVESGGGLVQAGGSLRLSCAASGSIFFKYAMGWYRQAPGKEREMVAAITWSGGRTYYADSVKGRFTISRDNAKNTVYLQMNSLKPEDTAVYYCNAYSIGVAAADDYWGQGTQVTVSS”: “high polyreactivity”. To “QVQLVESGGGLVQAGGSLRLSCAASGSIFFPYAMGWYRKAPGKERGLVAAISWRGGITYYADSVKGRFTISRDNAKNTVYLQMNSLKPADTAVYYCAADGPYTGDGALDYWGQGTQVTVSS” belongs “high polyreactivity”; to “QVQLVESGGGLVQAGGSLRLSCAASGSIFFRNAMGRYRPAPGKERELVAAISKSGGSTYYADSVKGRFTISRDNAKNTVYLQMNSLKPEDTAVYYCAAERTFLYWAYDYWGQGTQVTVSS”, “high polyreactivity”. The same measure for “QVQLVESGGGLVQAGGSLRLSCAASGSIFFRNAMGWYRQAPGKERELVAAITWNGGSTYYADSVKGRFTISRDNAKNTVYLQMNSLKPEDTAVYYCNKYYYYRDSGYWGQGTQVTVSS”: “high polyreactivity”; for “QVQLVESGGGLVQAGGSLRLSCAASGSIFFRYALAWYRQAPGKERELVASITSGGSTYYADSVKGRFTISRDNAKNTVYLQMNSLKPEDTAVYYCNALPYRYRRYDYWGQGTQVTVSS”: “low polyreactivity”. In the case of “QVQLVESGGGLVQAGGSLRLSCAASGSIFFRYAMGWYRQAPGKERELVATIRSSGGRTHYADSVKGRFTISRDNAKNTVYLQMHSLKPEDTAVYYCHYGVYQYPQDYDYWGQGTQVTVSS”, the “polyreactivity (PSR sort gate)” value is given as “low polyreactivity”.

Regarding “QVQLVESGGGLVQAGGSLRLSCAASGSIFFRYAMGWYRQAPGKVRELVANISSGGGNTYYADSVKGRFTISRDNAKNTVYLQMNSLKPEDTAVYYCARRLATRGHTYDYWGQGTQVTVSS”, the “polyreactivity (PSR sort gate)” value is recorded as “low polyreactivity”. To “QVQLVESGGGLVQAGGSLRLSCAASGSIFFSNAMGWYSPAPGKEREIVAGIRSGGITNYADSVKGRFTISRDNAKNTVYLEMNSLKPEDTAVYYCAKLNDHGRYAYAFDYWGQGTQVTVSS” belongs “low polyreactivity”. To “QVQLVESGGGLVQAGGSLRLSCAASGSIFFSNVMGWYRQAPGKERELVAAIRWSGDSTYYADSVKRRFTISRDNAKNTVYLQMNSLKPEDTAVYYCARDVYGSVSVSGYYYWGQGTQVTVSA” belongs “low polyreactivity”. The same measure for “QVQLVESGGGLVQAGGSLRLSCAASGSIFFSYAMGWYRQAPGKEREFVAAINSDDASTYADSVKGRFTISRDNAKNTVYLQMNSLKPEDTAVYYCAASFLWSWYDYWGQGTQVTVSS”: “low polyreactivity”.

For “QVQLVESGGGLVQAGGSLRLSCAASGSIFFSYAMGWYRQARGKERELVAAISTSGGNTYYADSVKGRFTISRDNAKNTVYLQMNSLKPEDTAVYYCNALYIYFYNYLTMDYWGQGTQVTVSS”, the “polyreactivity (PSR sort gate)” value is recorded as “low polyreactivity”.

For the sequence “QVQLVESGGGLVQAGGSLRLSCAASGSIFFTNAKGLSRQAPGKERELVAAITSSGTRTYYADSVKGRFTISRDNAKNTVYLQKNSLKPEDTAVYYCAVEVQYKYDYSHTYRYYYWGQGSQVTVSS”, the “polyreactivity (PSR sort gate)” value is “high polyreactivity”.

For “QVQLVESGGGLVQAGGSLRLSCAASGSIFFVNAMGWYRQAPGKERELVAAITWNAGRTYYADSVKGRFTISRDNAKNTVYLQMNSLKPEDTAVYYCNARAYYSSAIYDYWGQGTQVTVSS”, the “polyreactivity (PSR sort gate)” value is “low polyreactivity”. The same measure for “QVQLVESGGGLVQAGGSLRLSCAASGSIFFWYAMGWYRQAPGKERELVAAISRGGRTTYADSVKGRFTISRDNAKNTVYLQMNSLKPEDTAVYYCAAYRYFTYFYYSDYPYNYWGQGTQVTVSS”: “high polyreactivity”; for “QVQLVESGGGLVQAGGSLRLSCAASGSIFFYALGWYRQAPGKERELVADITYTGGSKYADSVKGRFTISRDNAKNTVYLQLNRLKPEDTAVYYCAKLDGGLFDYWGQGTQVTVSS”: “low polyreactivity”; for “QVQLVESGGGLVQAGGSLRLSCAASGSIFFYYAMGRYRQAPGKEMELVATINIGAGSTNYADSVKGRFTISRDNAKNTVYLQMNSLKPEDTAVYYCAADVNFYQDYIYLTDYDYWGQGTQVTVSS”: “low polyreactivity”.

On to “QVQLVESGGGLVQAGGSLRLSCAASGSIFFYYAMGRYRQARGKERQLVAAISYSDGTTYYADSVKGRFTISRDNAKNTVYLQMNSLKPEDTAVYYCAADLWVGLVTLWDGYVQYDYWGQGTQVTVSS”, for which the “polyreactivity (PSR sort gate)” value is “low polyreactivity”. To “QVQLVESGGGLVQAGGSLRLSCAASGSIFFYYAMGWYRQAPGKERELVAAINSDGSTNYADSVKGRFTISRDNAKNTVYLQMNSLKPEDTAVYYCNADTPYYQGEYNYWGQGTQVTVSS” belongs “low polyreactivity”; to “QVQLVESGGGLVQAGGSLRLSCAASGSIFFYYAMGWYRQAPGKERELVATITSGGSTSYADSVKGRFTISRDNAKNTVYLQMNSLKPEDTAVYYCAARKVTKSTYNYWGQGTQVTVSS”, “low polyreactivity”. The same measure for “QVQLVESGGGLVQAGGSLRLSCAASGSIFGANAMGLYRQAPGKERELLATITLRDGSTYYADSVKGRFTISRDNAKNTVYLQRNSLKPEDTAVYYCATYYSAINYGCSKTILYDYWGQGTQVTVSS”: “low polyreactivity”; for “QVQLVESGGGLVQAGGSLRLSCAASGSIFGANAMGWYRQAPAKEWELVAAITRGGRTNYADSVKGRFTISRDNAKISVYLQMNSLKPEDTAVYYCNAAWGTGRWAGYISGGDWGQGTHVTVSS”: “high polyreactivity”. The same measure for “QVQLVESGGGLVQAGGSLRLSCAASGSIFGANAMGWYRQAPGKERELVAAISTRGGRTYYADSVKGRFTISRDIAKNTVYLQMNSLKPEDTAVYYCAAYSSYPEYRRGKYDYWGQGTQVTVSS”: “high polyreactivity”; for “QVQLVESGGGLVQAGGSLRLSCAASGSIFGANAMGWYRQAPGTVRELVAAISRRGGSTYYADSVKGRFTISRDNAKNTVHLQMNSLKPEDTAVYYCNTYPQSLGVKYGYWGQGTQVTVSS”: “high polyreactivity”; for “QVQLVESGGGLVQAGGSLRLSCAASGSIFGANGMGWYRQAPGKESELVAASTSGGSTTYADYVKGRFTISRDNAKNTVYLQINSLKPEDTAVYYCAADECTPYWPVDNFDYWGQGTQVTVSS”: “low polyreactivity”.

“QVQLVESGGGLVQAGGSLRLSCAASGSIFGAYAMGWYRQAPGKERELVAAISWRDGSTYYADSVKGRFTISRDNAKNTVYLQMNSLKPEDTAVYYCAAEYVYIFYDSDYWGQGTQVTVSS”: the “polyreactivity (PSR sort gate)” value is “high polyreactivity”.

Values taken from the nanobody polyreactivity screen of Harvey et al. (2022).
